The record followed here is US20250073269A1 (CAS LAMVAC GUANGZHOU BIOMEDICAL TECHNOLOGY, published 2025).

In assay [1] the target is T1, catenated VAR2CSA recombinant protein AXVB (Plasmodium, isopeptide bond between SpyTag and SpyCatcher (intra- or intermolecular coupling, cyclization and catenation)).
T1 construct: also called AXVB protein; AXVB navigator protein
Description: ELISA, AXVB coated, 5H4 mAb titrated; single experiment of three.
Description: (§1) (1) Antigen coating: The AXVB and rVAR2 proteins were diluted to a final concentration of 20 nM with the Na₂CO₃—NaHCO₃ carbonate coating buffer (with a pH of 9.6) which was filtered and sterilized by the 0.22 μm filter membrane, respectively, 100 μL of each protein sample was added to a 96-well Elisa plate (JET BIOFIL, Guangzhou, China, Cat. #FEP101896), with three replicates per protein sample, and the Elisa plate was covered with a sealing film and incubated at 4° C. overnight. […] (2) Antigen blocking: The coating solution in the Elisa plate was removed, the Elisa plate was washed with a PBST solution (1×PBS+0.05% v/v polyoxyethylene sorbitan fatty acid ester, with a pH of 7.2-7.4) three times, the liquid was patted dry, 200 μL of PBST solution containing 5% BSA was added, and the Elisa plate was then incubated at room temperature for 2 hours. […] (3) Primary antibody incubation: The antigen blocking solution was removed, the Elisa plate was washed with the PBST solution three times, and 100 μL of 5H4 mAb at different concentrations which was diluted with an antibody dilution solution (1×PBS containing 0.1% BSA) in different ratios was added to each well.

Assay [2] concerns the target T2, wild-type VAR2CSA recombinant protein (rVAR2) (Plasmodium).
T2 construct: Monomer of about 73.1 kDa including the tag, with no intra- or intermolecular coupling; Prepared as in CN110325551B; also called rVAR2 protein; monomeric VAR2CSA recombinant protein
T2 chain: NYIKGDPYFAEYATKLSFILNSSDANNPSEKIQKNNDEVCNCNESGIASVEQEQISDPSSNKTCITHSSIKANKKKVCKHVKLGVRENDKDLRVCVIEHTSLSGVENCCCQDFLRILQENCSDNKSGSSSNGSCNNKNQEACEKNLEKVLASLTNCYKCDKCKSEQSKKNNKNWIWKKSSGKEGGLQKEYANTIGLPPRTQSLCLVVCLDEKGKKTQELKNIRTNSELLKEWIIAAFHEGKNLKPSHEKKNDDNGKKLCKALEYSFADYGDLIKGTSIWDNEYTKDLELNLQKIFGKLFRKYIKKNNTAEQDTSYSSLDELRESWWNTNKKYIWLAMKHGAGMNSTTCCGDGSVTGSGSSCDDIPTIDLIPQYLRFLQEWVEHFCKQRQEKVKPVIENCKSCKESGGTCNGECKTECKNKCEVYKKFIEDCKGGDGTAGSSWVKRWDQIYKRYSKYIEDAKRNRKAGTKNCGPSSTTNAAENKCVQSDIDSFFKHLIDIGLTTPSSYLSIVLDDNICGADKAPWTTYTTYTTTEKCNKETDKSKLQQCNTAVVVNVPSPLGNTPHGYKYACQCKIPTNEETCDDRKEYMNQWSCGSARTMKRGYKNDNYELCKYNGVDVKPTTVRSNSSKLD
Description: ELISA, rVAR2 coated, 5H4 mAb titrated; single experiment of three.
Description: as §1

In assay [3] the target is T1, catenated VAR2CSA recombinant protein …. Description: ELISA, AXVB coated, 5H4 mAb titrated; single experiment of three (FIG. 10). (In general: An ELISA detects its analyte on a solid surface through an enzyme-linked reagent.)
Description: as §1
Assay [4] concerns the target T2, wild-type VAR2CSA recombinant protein …. Nature of the assay: ELISA, rVAR2 coated, 5H4 mAb titrated; single experiment of three (FIG. 11).
Description: as §1
In assay [5] the target is T1, catenated VAR2CSA recombinant protein …. Description: ELISA, AXVB coated at 20 nM, 5H4 mAb titrated, non-linear regression; mean of three experiments.
Assay [6] concerns the target T2, wild-type VAR2CSA recombinant protein …. Nature of the assay: ELISA, rVAR2 coated at 20 nM, 5H4 mAb titrated, non-linear regression; mean of three experiments.

Where “and” joins values, the source holds several entries; their conditions need not be identical. Identical values can stand only once.

B1: monoclonal antibody 5H4 (5H4 mAb) (antibody, V domains shown)
VH: EVKLVESGGGLVKPGGSLKLSCAASGFTFSNYAMSWVRQSPERRLEWVAEISITGRYTYYPDTVTGRFTISRDNAKNTLYLEMSSLRSEDTAMYYCTREGYDYAPSWFAYWGQGTLVTVSA
VL: DVVMTQTPLSLPVSLGDQASISCRSGQTLVHRNGITYLEWYLQKPGQSPKLLIYKVSNRFSGVPDRFSGSGSGTDFTLKISRVEAEDLGIYYCFQGSHVPRTFGGGTKLEIK
notes: Mouse monoclonal antibody, detected with anti-mouse IgG; also called mouse anti-rVAR2 protein monoclonal antibody 5H4 mAb
One may read the Kd as the concentration at which binding is half-saturated. Turning to B1, the dissociation constant Kd in assay [1] is 73 nM and 100 nM; in assay [2] it was 123 nM and 174 nM; in assay [3], 77.8 nM; in assay [4] it was 136 nM; in assay [5] it was 83.7 nM; in assay [6], 144 nM.
